Measurements: PMC4586260 (Biochemistry, 2008)
Values joined by “and” are separate entries in the source; they are usually repeats but may differ in a detail not shown here. Identical values can stand only once.

B1: WRN fragment WRN(1151-1432) (domain or fragment, human, UniProt Q14191 1151-1432, looked up)
chain: ETQIVLYGKLVEARQKHANKMDVPPAILATNKILVDMAKMRPTTVENVKRIDGVSEGKAAMLAPLLEVIKHFCQTNSVQTDLFSSTKPQEEQKTSLVAKNKICTLSQSMAITYSLFQEKKMPLKSIAESRILPLMTIGMHLSQAVKAGCPLDLERAGLTPEVQKIIADVIRNPPVNSDMSKISLIRMLVPENIDTYLIHMAIEILKHGPDSGLQPSCDVNKRRCFPGSEEICSSSKRSKEEVGINTETSSAERKRRLPVWFAKGSDTSKKLMDKTKRGGLFS
B2: WRN C-terminal fragment WRN(1072-1432) (domain or fragment, human, UniProt Q14191 1072-1432, looked up)
chain: KKLLLPSSKTVSSGTKEHCYNQVPVELSTEKKSNLEKLYSYKPCDKISSGSNISKKSIMVQSPEKAYSSSQPVISAQEQETQIVLYGKLVEARQKHANKMDVPPAILATNKILVDMAKMRPTTVENVKRIDGVSEGKAAMLAPLLEVIKHFCQTNSVQTDLFSSTKPQEEQKTSLVAKNKICTLSQSMAITYSLFQEKKMPLKSIAESRILPLMTIGMHLSQAVKAGCPLDLERAGLTPEVQKIIADVIRNPPVNSDMSKISLIRMLVPENIDTYLIHMAIEILKHGPDSGLQPSCDVNKRRCFPGSEEICSSSKRSKEEVGINTETSSAERKRRLPVWFAKGSDTSKKLMDKTKRGGLFS

Target: the molecule itself
Assay: SEC

Protein | stoichiometry N
B1 | 3
B2 | 6 and 3
